This note sets out measurements from paper PMC12533644, “Nuclear 2′-O-methylation regulates RNA splicing through its binding protein FUBP1”.

The target of the data set is FUBP1-strep (UniProt Q96AE4 1-644). Nature of the data set: EMSA; EMSA: 10 mM Tris pH 7.5, 140 mM KCl, 10 mM NaCl, 1 mM MgCl2, 10% glycerol, 1 mM DTT, RNase inhibitor 1 U/ul, room temperature 30 min; probe 20 nM (Fig. 3A) or 10 nM (Fig. 5E, S5D). Pull-down: HepG2 lysate (50 mM Tris pH 7.5, 100 mM NaCl, 1% NP-40, 0.5% deoxycholate) + tRNA 50 ug/ml, RT 30 min then 4 C 90 min; washes 10 mM Tris pH 7.5, 150 mM KCl, 1.5 mM MgCl2, 0.1% NP-40, 0.5 mM DTT. As to conditions: protein: recombinant; tags: C-terminal Strep-tag; label: 5' FAM.
Chain of FUBP1-strep (Q96AE4 whole entry): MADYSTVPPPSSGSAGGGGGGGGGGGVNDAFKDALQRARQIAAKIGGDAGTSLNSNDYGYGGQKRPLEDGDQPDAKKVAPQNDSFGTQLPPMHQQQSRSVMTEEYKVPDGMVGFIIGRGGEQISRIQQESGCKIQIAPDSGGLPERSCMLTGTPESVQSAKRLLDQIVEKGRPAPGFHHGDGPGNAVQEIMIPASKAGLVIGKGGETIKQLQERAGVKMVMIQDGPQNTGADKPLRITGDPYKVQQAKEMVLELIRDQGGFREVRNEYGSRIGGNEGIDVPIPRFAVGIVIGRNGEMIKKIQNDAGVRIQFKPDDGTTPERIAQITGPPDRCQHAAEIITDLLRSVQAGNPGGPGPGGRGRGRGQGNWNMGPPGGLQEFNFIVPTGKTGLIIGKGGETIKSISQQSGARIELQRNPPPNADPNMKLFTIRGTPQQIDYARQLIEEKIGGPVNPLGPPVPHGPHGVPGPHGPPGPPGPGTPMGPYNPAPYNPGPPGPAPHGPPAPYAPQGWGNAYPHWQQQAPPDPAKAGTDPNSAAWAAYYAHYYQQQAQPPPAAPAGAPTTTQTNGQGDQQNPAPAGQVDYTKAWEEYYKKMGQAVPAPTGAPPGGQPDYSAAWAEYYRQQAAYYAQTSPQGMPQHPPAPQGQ

For the molecule CGCUGAGUGCGCUGCACUGACCUUCUUCCA (ssRNA, 2'-O-methyl, multiple sites) [SNX5 Nm], the binding result is “binds”.
The value for ACUGAACGCCUUUAAGUCAGAAUCCCACCC (ssRNA, 2'-O-methyl at G4, G16, C18, A19, C24, C25, A27) [SEC14L1 Nm] was “binds”.
